Results: paper PMC5507636 (Science Advances, 2017)

Molecular target: Streptococcus pyogenes Cas9 (Streptococcus pyogenes, UniProt Q99ZW2)
Experiment: cryo-EM structure

Chain of Streptococcus pyogenes Cas9 (Q99ZW2 whole entry): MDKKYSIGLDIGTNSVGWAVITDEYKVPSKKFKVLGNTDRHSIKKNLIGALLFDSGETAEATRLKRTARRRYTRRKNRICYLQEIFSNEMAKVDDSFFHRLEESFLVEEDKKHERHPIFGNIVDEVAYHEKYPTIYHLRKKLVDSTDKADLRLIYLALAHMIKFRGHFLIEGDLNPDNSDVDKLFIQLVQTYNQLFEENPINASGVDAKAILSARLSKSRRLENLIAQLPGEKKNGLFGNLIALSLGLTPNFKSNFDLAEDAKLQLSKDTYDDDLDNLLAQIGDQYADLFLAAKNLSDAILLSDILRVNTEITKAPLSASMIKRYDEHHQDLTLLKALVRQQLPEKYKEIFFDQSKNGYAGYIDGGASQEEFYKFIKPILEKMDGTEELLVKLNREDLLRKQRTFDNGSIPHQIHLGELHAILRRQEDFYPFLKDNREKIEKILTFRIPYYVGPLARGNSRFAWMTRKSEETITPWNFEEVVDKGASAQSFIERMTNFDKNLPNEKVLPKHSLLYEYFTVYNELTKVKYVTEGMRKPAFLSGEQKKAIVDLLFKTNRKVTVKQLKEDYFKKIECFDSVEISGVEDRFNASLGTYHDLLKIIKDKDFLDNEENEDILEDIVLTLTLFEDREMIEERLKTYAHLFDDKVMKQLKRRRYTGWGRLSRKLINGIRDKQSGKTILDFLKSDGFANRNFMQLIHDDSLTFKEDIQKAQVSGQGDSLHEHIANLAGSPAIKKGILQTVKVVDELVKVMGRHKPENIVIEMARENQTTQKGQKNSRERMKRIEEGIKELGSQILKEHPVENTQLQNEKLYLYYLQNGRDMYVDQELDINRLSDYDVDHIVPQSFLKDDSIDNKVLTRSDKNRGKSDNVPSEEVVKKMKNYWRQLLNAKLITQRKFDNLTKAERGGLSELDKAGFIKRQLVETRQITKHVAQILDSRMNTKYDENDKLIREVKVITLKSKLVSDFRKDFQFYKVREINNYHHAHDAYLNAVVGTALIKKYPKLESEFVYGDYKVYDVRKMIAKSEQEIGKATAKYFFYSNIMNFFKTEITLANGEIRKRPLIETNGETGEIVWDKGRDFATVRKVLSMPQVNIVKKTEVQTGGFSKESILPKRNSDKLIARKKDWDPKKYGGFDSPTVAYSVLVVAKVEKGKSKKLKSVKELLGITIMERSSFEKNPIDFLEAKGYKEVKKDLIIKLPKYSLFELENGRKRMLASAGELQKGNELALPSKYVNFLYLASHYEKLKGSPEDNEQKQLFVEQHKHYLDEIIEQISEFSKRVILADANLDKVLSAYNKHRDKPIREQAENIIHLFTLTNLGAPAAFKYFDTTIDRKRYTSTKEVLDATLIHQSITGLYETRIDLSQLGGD

B1: anti-CRISPR protein AcrIIA4 (natural protein)
chain: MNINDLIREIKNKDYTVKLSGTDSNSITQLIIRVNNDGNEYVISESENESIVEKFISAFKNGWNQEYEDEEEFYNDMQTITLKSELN
- stoichiometry N: 1
